In publication PMC3642142:

Biological target: IAEDANS-labeled K75C mutant calmodulin (UniProt P0DP23)
Assay: other fluorescence titration; IAEDANS emission (excitation 340 nm, emission 475 nm) of about 1 nM I-CaM; LSEL15 titrated; 10 mM MOPS pH 7.4, 100 mM NaCl, 0.3 mM CaCl2, 0.1 mg/ml BSA

Peptide LSEL15 (L-selectin residues Ala311-Lys325)
Kd: 3.8 nM
